{"source": "paper PMC2856916", "key": {"[1]": {"system": "histone octamer unacetylated H3 (smFRET)", "experiment": "single-molecule FRET", "details": "reference; Binding assay buffers not given in material; array DNA kept in 2 M NaCl, 10 mM TEA, 1 mM EDTA; reconstituted arrays dialysed into 1 mM MgCl2, 10 mM TEA pH 7.4"}, "[2]": {"system": "histone octamer H3 K56Ac (smFRET)", "experiment": "single-molecule FRET", "details": "DNA breathing increased by K56Ac; Binding assay buffers not given in material; array DNA kept in 2 M NaCl, 10 mM TEA, 1 mM EDTA; reconstituted arrays dialysed into 1 mM MgCl2, 10 mM TEA pH 7.4"}}, "data": [{"substance": "mononucleosome DNA for smFRET", "values": [{"measurement": "binding signal (fold DNA breathing (reference))", "setting": "[1]", "value": 1}, {"measurement": "binding signal (fold DNA breathing vs unacetylated)", "setting": "[2]", "value": 7}]}]}
